Test [1] concerns the target hPD-L1 as used in the binding and blocking tests of Example 4 (human, UniProt Q9NZQ7 19-238, limits assumed). Briefly: competition with PD-1 for PD-L1, scFv-Fc (FIG. 3).
For test [2], the target named is human PD-L1 on primary human cells in the dendritic cell / CD4+ T cell mixed lymphocyte reaction (human, UniProt Q9NZQ7 19-290). Briefly: cell-based or functional assay.

Where “and” joins values, the source holds several entries; their conditions need not be identical. Identical values can stand only once.

Chain of human PD-L1 on primary human cells in the dendritic cell / CD4+ T cell mixed lymphocyte reaction (Q9NZQ7 19-290): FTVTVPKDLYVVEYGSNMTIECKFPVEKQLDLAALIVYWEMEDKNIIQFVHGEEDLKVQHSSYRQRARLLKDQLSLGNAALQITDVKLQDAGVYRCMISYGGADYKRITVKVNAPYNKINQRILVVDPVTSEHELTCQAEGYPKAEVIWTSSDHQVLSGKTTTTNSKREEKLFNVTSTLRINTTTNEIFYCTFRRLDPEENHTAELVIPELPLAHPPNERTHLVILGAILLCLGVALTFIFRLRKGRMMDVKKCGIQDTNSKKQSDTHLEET
Chain of hPD-L1 as used in the binding and blocking tests of Example 4 (Q9NZQ7 19-238 limits assumed): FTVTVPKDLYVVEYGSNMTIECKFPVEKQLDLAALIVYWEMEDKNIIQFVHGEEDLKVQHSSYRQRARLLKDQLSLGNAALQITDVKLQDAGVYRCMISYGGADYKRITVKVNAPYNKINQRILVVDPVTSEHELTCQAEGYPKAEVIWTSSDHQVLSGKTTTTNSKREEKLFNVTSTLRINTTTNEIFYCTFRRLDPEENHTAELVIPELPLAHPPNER

B1: B60-55 anti-hPD-L1 scFv fused to IgG1-Fc (affinity matured) (Fc fusion)
scFv: QVQLVQSGAEVKKPASSVKVSCTASGGSFSTYAISWVRQAPGQGLEWMGGIIPIFGTTKYAQRFQGRVTITADESTTTAYMELSSLISDDTALYYCTTSRGFNYGWFDYWGQGTLVTVSSGGGGSGGGGSGGGGSEIVMTQSPATLSLSPGERATLSCRASQSVGIHLAWYQQKLGQAPRLLIYGASSRATGIPDRFSGSGSGTDFTLTISRLEPEDFAVYYCQQYGSLPRTFGQGTKVEIK
notes: not shown: human immunoglobulin gamma1 (IgG1) constant region, UniProt P01857, residues 104-330 (IgG1-Fc)
A word on the IC50: it is the concentration at which inhibition is half-maximal. Read a low IC50 as greater potency in that assay. Regarding B1, the IC50 in test [1] was 1.14 µg/mL.

B2: BII61-62 anti-hPD-L1 scFv fused to IgG1-Fc (affinity matured) (Fc fusion)
scFv: QVQLQQSGPGLVKPSQTLSLTCAISGDSVSSNSASWNWIRQSPSRGLEWLGRTYYRSKWYDDYAVSVKGRISINPDTSKNQFSLQLNSVTPEDTAVYYCARSQGRYFVNYGMDVWGQGTTVTVSSGGGGSGGGGSGGGGSDIRLTQSPSSLSASVGDRITITCRASQSISSYLNWYQQKPGKAPKLLVYGASSLQSGVPSRFSGSGSGTDFTLTISSLQPEDVATYYCQQSYFTPRGITFGPGTKVDIK
notes: as for B1
Molecule B2 showed a half-inhibitory concentration (IC50) in test [1] of 0.837 µg/mL.

B3: B60-55 mAb (anti-hPD-L1, human IgG1, kappa) (antibody, V domains shown)
VH: QVQLVQSGAEVKKPASSVKVSCTASGGSFSTYAISWVRQAPGQGLEWMGGIIPIFGTTKYAQRFQGRVTITADESTTTAYMELSSLISDDTALYYCTTSRGFNYGWFDYWGQGTLVTVSS
VL: EIVMTQSPATLSLSPGERATLSCRASQSVGIHLAWYQQKLGQAPRLLIYGASSRATGIPDRFSGSGSGTDFTLTISRLEPEDFAVYYCQQYGSLPRTFGQGTKVEIK
As to B3, the “EC50 of IFN-γ secretion by CD4+ T cells in a dendritic cell-T cell mixed lymphocyte reaction” value in test [2] was 0.189 µg/ml and 1.2 nM.

B4: BII61-62 mAb (anti-hPD-L1, human IgG1, kappa) (antibody, V domains shown)
VH: QVQLQQSGPGLVKPSQTLSLTCAISGDSVSSNSASWNWIRQSPSRGLEWLGRTYYRSKWYDDYAVSVKGRISINPDTSKNQFSLQLNSVTPEDTAVYYCARSQGRYFVNYGMDVWGQGTTVTVSS
VL: DIRLTQSPSSLSASVGDRITITCRASQSISSYLNWYQQKPGKAPKLLVYGASSLQSGVPSRFSGSGSGTDFTLTISSLQPEDVATYYCQQSYFTPRGITFGPGTKVDIK
As to B4, the “EC50 of IFN-γ secretion by CD4+ T cells in a dendritic cell-T cell mixed lymphocyte reaction” value in test [2] was 0.078 µg/ml and 0.5 nM.

For the origin of these results see patent US20210115143A1 (R PHARM OVERSEAS, published 2021).
